The nanobody polyreactivity screen of Harvey et al. (2022)

Assay: yeast display, Sf9 membrane polyspecificity reagent, FACS + sequencing; frameworks hold sequencing errors
How it was run: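 Genes from sorted yeast were amplified by colony PCR, read by MiSeq 2 × 250 sequencing and filtered on CDR length. These cells carried a synthetic nanobody library in Saccharomyces cerevisiae BJ5465 and were sorted by FACS into low and high (top ~1%) gates on anti-HA and streptavidin fluorescence. Polyreactivity is labelled according to the gate of origin.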

Row | Sequence | polyreactivity (PSR sort gate)
1 | QVQLVESGGGLVQAGGSLRLSCAASGSTFLGNDMGWYRQEPGKERELVASINSATSTTYADSVKGRFTISRDNAKNTVYLQMNSLKPEDTAVYYCAARYYRPLDYWGQGTQVTVSS | low polyreactivity
2 | QVQLVESGGGLVQAGGSLRLSCAASGNTQGYNAAMGWYRQAPGKERELVAAINSGGGSTYYADSVKGRFTISRDNAKNTVYLQMNSLKPEDTAVYYCAARYRSRYDYYYDRDYWGQGTQVTVSS | low polyreactivity
3 | QVQLVESGGGLLQAGGSLRLSCAASGSTFGFYALGWFRQAPGKERELVAAISSGGTSTYYADSVKGRFTISRDNAKTTVYLQMNSVIPEDTAVYYCNSDTFQYPSTYDYWGQGTQVTVSS | low polyreactivity
4 | QDQLVESVGGLVQAGGSLRLSCAASGITFYYSAMGWDRQAPGKERELVAAISFRGGSTYYADSVKGRFTSSRDNAKNTVYLQMNSLKPEDTAVYYCAAETSPSWYTWVTYDYWGQGTQVTVSS | high polyreactivity
5 | QVHLVESGRGLVQAGGSLRLSCAASGSTFGWNTMGWYRQAPAKERELVAAISWSGDRTYYADSVKGRFTISRDNAKNTVYLQMNRLKPEDTAVYYCARQRYYGYYYWGQGTQVTVSS | high polyreactivity
6 | QVQLVESGAGLVQAGGSLRLSFAASGRTFVSYDMGWYRQATGKERELVAAITYSGGSSTYYADSVKGRFTISRDNAKNTVYLQMNSLKPEDTAVYYCAVYGGGSRNFGDVGYWGQGTLVTVSS | low polyreactivity
7 | QVQLGESGGGLVQAGGSLRLSCAASGFIFFYYAMGRYRQAPGKERELVAVNTRGGSTYYADSVKGRFTISRDNAKNTVYLQMNSLKPVDTAVYYCAAGIFYYRYYQVDYWGQGTQVTVSS | high polyreactivity
8 | QVQLVESGGGLVQAGGSLRLSCASYGRTFYDYAMGWYRPAPGKERELVAGIRWSGGSTYYADSVKGRFTISRDNAKNTVYLQLNRLKPEDTAVYYCAADWFAGVAADVEYDYWGQGTQVTVSS | low polyreactivity
9 | QVQLVESGGGLVQAGGSLRFSCAASGFIFSNYAMGWYRQAPGKERELVAAITSGGSTNYADSVKGRFTISRDNAKNTVYLQMNSLKPEDTAVYYCAAERGDTAYRKYDYWGQGTQVTVSS | low polyreactivity
10 | QVQLVESGGGLVQAGGSLRLSCAASGFIFRSYAMGWYRPAPGKERELVAAITKSGGRTYYADSVKGRFTISRDNAKNTVYLQMNSLKPEDTAVYYCAADQTSYSTSRRYDYWGQGTQVTVSS | high polyreactivity
11 | QVQLVESGRGLVQAGGSLRLSCAASGSILRNYAMGWYRQAPGKERELVAAISKSGGTTYYADSVKGRFTISRDNAKNTVYLQMNSLKPEDTAVYYCAARPGYLYDYWGQGTQVTVSS | high polyreactivity
12 | QVQLVDSGAGLVQAGGSLRIICAASVRTFPRNAMGWYRQAPGKEMEMVAAITGSGGSTYYADSVKGRFTISRDNAKNTVYLQMNSLKPEDTAVYYCAARGPSRRRDGSDYWGQGTQVTVSS | high polyreactivity
13 | QVQLVESGGGLVQAGGSLRLSCAASGYIFRSYAMGWYRQAPGKERELVAAITRSGGSTYYADSVKGRFTISRDNAKNTVYLQMNSLKPEDTAVYYCAVLPRGSNGMDYWGQGTQVTVSS | low polyreactivity
14 | QVQLVESGGGLVQAGGSLRLSCAASGYTCGPYAMGWYRQAPGKERELVAAITTRGGSTYYADSVKGRFTISRDNAKNTVYLQMNSLKPEDTAVYYCAAVVNSKSIQRVVRYYYWGQGTQVTVSS | high polyreactivity
15 | QDQLVESGGGLVQAGGSLRLSCAASGLTFKYYTMGWYRQAAGKERELVAYISRTGRTSYADSVKGRFTISRDNAKNTVYLQMNSLNPEDTGVYYCNADFYVSGYSLFDSIYDYWGQGTQVTVSS | high polyreactivity
16 | QVQLVESGGGLVQAGGSLRLSCAASGSIFNTYAMGWYRQAPGKERELVAAISRSGDSTYYADSVKGRFTISRDNAKNTVYLQMNSLKPEDSAVYYCATGRTDHGYYYWGQGTQVTVSS | high polyreactivity

Row | Sequence | polyreactivity (PSR sort gate)
17 | QVQLVESGGGLVQAGGSLRLSCAASGSTFSPYAMGWYIQAPGKERELVAAIRVRVGGNTYYADSVKGRFTISRDNAKNTVYLQMNSLKPEDTAVYYCAAYSRTLYPDRYYWGQGTQVTVSS | high polyreactivity
18 | QVQLVESGGGLVQAGGSLRLICAASGSIFDRYVMGWYRQAPGKERELVAAITTSGDGTYYADSVKGRFTISRDNAKNTVYLQMNSLKPEDTAVYYCAAVRRSWKYSTSDYWGQGTQVTVSS | low polyreactivity
19 | QVQLVESGGGRVQAGGSLRLSCAASGITFDANAMGWDRQAPGKERELVARISSGGSTNYADSVKGRFTISRDNAKNTVYLQMNSLKPEDTAVYYCAKSYQYGFDYWGQGTQVNVSS | low polyreactivity
20 | QVQLVESGGGLVQAGGSLRLSCAASGSTFVLYAMGWYRQAPGKERELVAAITWTGGTTNYADSVKGRFTISLDNAKNTDYLQMNILQPEDTAVSYCAAKTNGRYDYWGQGTQVTVSS | low polyreactivity
21 | QVQLVESGGGLVQAGGSLRLSCAASASTLNGNAKAWYRQAPGKDRELVAAITTSGGSTYYADSVKGRFTISRDNAKNTDSLQMHSQNPEDTAVYYCNKLIGRRYGWANGYDYWGQGTQVTVSS | low polyreactivity
22 | QVQLVESGGGLVQAGGSLRLSCAASGSTFGPNGMGWYRQAPGKERELVARIDRIGGGTYYADSVKGRFTISRDNAKNTVYLQMNSLKPEDTAVYSCAADGPSPFIQGYAKGDYWGQGTQVTVSS | low polyreactivity
23 | QVQLVESGGGIVQAGGSLRLSCAASGSILYPYAMGWYRQAPGKERELVAAISRGGSTNYADSVKGRFTISRDNAKNTVYLQMNSLKPEDTAVYYCATAYTRFSQRYEYYVIYWQNDYWGQGTQVTVSS | low polyreactivity
24 | QVQLVESGGGLVQAGGSLRLSCAASGFTFDHNAMGWYRQAPGKERELVARITGTGDSTYYADSVKGRFTISRDNAKKTVYLQMNSLNPEDSADYYCNADRRYDFYDGYGYWGQGTQVTVSS | low polyreactivity
25 | QVQLVESGGGLVQAGGSLRLSSAASGRTFRYYAMGWYRQAPGKERELVASISDGGSTNYADSVKGRFTISRDNAKNTVYLQMNSLKPEDTAVYYCAADGWWQYDYWGQGTQVTVSS | low polyreactivity
26 | QVQLVESGGGLVQAGGSLRLSCAASGGTFAGYAMGWYRQAPGKERELVAAIRWSGGRTYYADSVKGRFTISRDNAKNSVYLQMNSLKPEDTAVYYCAANGHGRVYFEMDYWGQGTQVTVSS | high polyreactivity
27 | QVQLVESGGGLVQAGGSLRLSCAASGRTFHYYAMGWYRQAPGKERELVAAITRGGNTYYADSVKGRFTISRDNAKNTVYLQMNSLKPEDTAVYYCAKDNHFEAYRYDYWGQGTQVTVSS | low polyreactivity
28 | QVQLVESGGGLVQAGGSLRLSCAASGSIFVGYVMGWYRQAPGKERELVARIRWGGGRTYYADSVKGRFTISRDNAKNTVYLQMNSLKPEDTAVYYCNARYSYHSVGYWGQGTQVTVSS | high polyreactivity
29 | QVQLVESGGGLVQAGGSLRLSCADSGITFVRNAMGWYIHAPGKERECVAAISGSGVSTYADSVKGRFTISRDNAKNTVYLQMNILKPEDTAVYYCNTDEWYHFYHGAHKYDYWGQATQVTVSS | low polyreactivity
30 | QVQLVESGGGLVQAGGSLRLSCAASGFTFYRNAMGWYRQAPGKERELVAAISRGGRTYYADSVKGRFTISRDNAKNTVYLQMNSLKQEDTAVYYCAADFYIKYSEFDYWGQGTQVTVSS | high polyreactivity
31 | QVQLVESGGGLVQAGGSLRLSCAASGFIFNYYVMGGYRQAPGKERELVATISWRGGRTYYADSVKGRFTISRDNAKNTVYLQMNSLKPEDTAVYYCAADSFYYRPEYDYWGQGTQVTVSS | low polyreactivity
32 | QVQLVESGGGLVQAGGSLRLICAASGRTFYKYAMGWYRQAPGKEREFVADISSRGGSTYYADSVKGRFTISRDNAKNTVYLQMNSLKPEDTSVYYCAAFSDLTFWHHFSELYYWGQGTQVTVSS | high polyreactivity
